Patent publication US20250270320A1 (EUTILEX, published 2025)
Numbering of substitutions follows the chain as printed. Blank lines part the entries; values can stand above or below the binder they belong to.

Tests used:
[1] = molecular target: T1, recombinant human PD-1-His protein (ECD) (human, UniProt Q15116 25-170); experiment: Q-ELISA of purified antibody on recombinant human PD-1-His, drawn table
T1 construct: extracellular domain; Used as ELISA coat and SPR partner; also called rhprotein; antigen; not shown: His tag
T1 sequence (Q15116 25-170): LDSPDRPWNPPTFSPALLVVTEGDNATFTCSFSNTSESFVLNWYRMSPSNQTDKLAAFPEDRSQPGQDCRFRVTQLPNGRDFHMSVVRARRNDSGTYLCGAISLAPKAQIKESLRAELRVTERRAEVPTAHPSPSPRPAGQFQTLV
Procedure: For ELISA, the recombinant human PD-1-His protein was O/N coated on a 96-well ELISA plate at 4° C., and blocked with 5% non-fat skim milk at RT for 1 hr. […]

[2] = molecular target: T2, human PD-1 expressed on cells (human, UniProt Q15116 25-288); experiment: flow cytometry on cells overexpressing hPD-1
T2 construct: whole, on cells; also called hPD-1; 293 cell line stably expressing human PD-1
T2 sequence (Q15116 25-288): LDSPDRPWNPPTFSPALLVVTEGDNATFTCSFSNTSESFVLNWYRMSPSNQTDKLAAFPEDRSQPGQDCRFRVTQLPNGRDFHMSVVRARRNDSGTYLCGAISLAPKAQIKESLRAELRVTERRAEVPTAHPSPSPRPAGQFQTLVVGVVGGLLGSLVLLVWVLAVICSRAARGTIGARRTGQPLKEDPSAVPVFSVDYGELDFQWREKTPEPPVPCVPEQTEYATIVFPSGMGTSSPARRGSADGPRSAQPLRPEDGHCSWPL

[3] = molecular target: T1, recombinant human PD-1-His protein (ECD); experiment: SPR; number in the sensorgram panel without name or unit, taken as KD in M because 9.655e-9 stands for 9.7 nM in FIG 9d
[4] = molecular target: T1, recombinant human PD-1-His protein (ECD); experiment: SPR, purified antibody, PD-1 antigen
[5] = molecular target: T2, human PD-1 expressed on cells; experiment: flow cytometry on activated hCD8 T cells from human blood, 2nd-hIgG-PE detection; 2nd-hIgG-PE alone 1.73
[6] = molecular target: T2, human PD-1 expressed on cells; experiment: flow cytometry on hPD-1/293 cells, 2nd-hIgG-PE detection; Ctl 2nd-hIgG 0.17, cell only 0.03
From the text: (§1) In addition, each purified humanized antibody was bound to 293 cells expressing human PD-1 and analyzed by flow cytometry.

[7] = molecular target: T2, human PD-1 expressed on cells; experiment: cell-based or functional assay
[8] = molecular target: T1, recombinant human PD-1-His protein (ECD); experiment: SPR
mouse PD-1 antigen = molecular target: T3, mouse PD-1 antigen (mouse, UniProt Q02242 25-167, limits assumed); experiment: ELISA on the PD-1 antigen of the species, antibody 500 to 3.90625 ng in 1/2 steps
T3 construct: ELISA antigen
T3 sequence (looked up): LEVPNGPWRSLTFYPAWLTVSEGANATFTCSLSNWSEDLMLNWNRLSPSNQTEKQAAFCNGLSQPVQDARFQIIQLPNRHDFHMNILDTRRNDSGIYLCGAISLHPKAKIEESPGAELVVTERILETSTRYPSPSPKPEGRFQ

[9] = molecular target: T1, recombinant human PD-1-His protein (ECD); experiment: SPR, drawn table; the column heads print no unit, units as in the table of FIG 7b
[10] = molecular target: T1, recombinant human PD-1-His protein (ECD); experiment: SPR, drawn table; no unit in the KD column, the Affinity column gives 9.7 nM (the text prints only 9.7 nM)
[11] = molecular target: T1, recombinant human PD-1-His protein (ECD); experiment: SPR, drawn table; no unit in the KD column, the Affinity column gives 5.8 nM (the text prints only 5.8 nM)
[12] = molecular target: T1, recombinant human PD-1-His protein (ECD); experiment: ELISA on coated recombinant human PD-1-His protein
Procedure: For ELISA, the recombinant human PD-1-His protein was O/N coated on a 96-well ELISA plate at 4° C., and blocked with 5% non-fat skim milk at RT for 1 hr. The antibody was treated with ½ serial dilution of each hybridoma culture medium from 100 ul at RT for 2 hr, and detected by anti-mIgG-HRP.
as §1

OD=405, row 1 of 8 (1/2 serial dilution from 500ng) [1]: 3.42
OD=405, row 2 of 8 (1/2 serial dilution from 500ng) [1]: 3.39
OD=405, row 3 of 8 (1/2 serial dilution from 500ng) [1]: 3.42
OD=405, row 4 of 8 (1/2 serial dilution from 500ng) [1]: 3.34
OD=405, row 5 of 8 (1/2 serial dilution from 500ng) [1]: 3.22
OD=405, row 6 of 8 (1/2 serial dilution from 500ng) [1]: 2.74
OD=405, row 7 of 8 (1/2 serial dilution from 500ng) [1]: 1.96
OD=405, row 8 of 8 (1/2 serial dilution from 500ng) [1]: 1.16
percent of cells in the positive quadrant [2]: 96.4%
Kd [3]: 211 nM
Kd [4]: 57.2 nM
koff [4]: 0.00492 s⁻¹
kon [4]: 86000 M⁻¹ s⁻¹
percent of cells in the positive quadrant [5]: 6.39%
percent of cells in the positive quadrant [6]: 95.3%
B1: humanized antibody 7C5 (antibody, V domains shown)
VH: EVQLVESGGGLVKPGGSLRLSCAASGFTFSSFGMSWVRQAPGKGLELVATIYSNGDYTYYPDSVKGRFTVSRDNAKNSLYLQMNSLRAEDTAVYYCARYYGNYGGYFDYWGQGTLVTVSS
VL: AIQMTQSPSSLSASVGDRVTITCKASQSVSNDVAWYQQKPGKAPKLLIYYASNRYTGVPSRFSGSGSGTDFTLTISSLQPEDFATYYCQQDYSSPPTFGGGTKVEIK
notes: Humanized antibody

EC50 (read off the curve); PD-1/PD-L1 Blockade Bioassay, luciferase RAU [7]: ~0.7 µg/mL
Kd [8]: 9.7 nM
binding result (mouse PD-1 antigen): no binding (tested: 500 ng)
koff [9]: 0.000632 s⁻¹
kon [9]: 65500 M⁻¹ s⁻¹
percent of cells in the positive quadrant [2]: 97.3%
Kd [10]: 9.65 nM
percent of cells in the positive quadrant [5]: 20.3%
B2: 7C5-T15-01 (antibody, human IgG4, V domains shown)
VH: B1 VH
VL: B1 VL with S30W, N31D, V33L, A34T

EC50 (read off the curve); PD-1/PD-L1 Blockade Bioassay, luciferase RAU [7]: ~0.8 µg/mL
Kd [8]: 5.8 nM
binding result (mouse PD-1 antigen): no binding (tested: 500 ng)
Kd [11]: 5.79 nM
koff [9]: 0.000508 s⁻¹
kon [9]: 87800 M⁻¹ s⁻¹
percent of cells in the positive quadrant [5]: 17%
B3: 2B3W-T14-05 (antibody, human IgG4, V domains shown)
VH: EVQLVESGGGLVQPGGSLRLSCAASGFVFSNYDMSWVRQAPGKGLEWVAYITIGGGTTYYPDTVKGRFTISRDNAKNSLYLQMNSLRAEDTAVYYCARWRYDPLFAMDYWGQGTTVTVSS
VL: DIVLTQTPLSLSVTPGQPASISCRASESVTDYGISFMNWFLQKPGQPPQLLIYAASNQGSGVPDRFSGSGSGTDFTLKISRVEAEDVGVYYCQQSKEVPWTFGQGTKVEIK
notes: also called EU135-T14.05

binding result [12]: no binding
B4: humanized antibody 2B3R (antibody, V domains shown)
VH: B3 VH with W99R, R100V, F105Y
VL: B3 VL with T30D, D31N
notes: Humanized antibody
